What is called Kd is the concentration at which binding is half-saturated. A high value points to lower affinity.

“And” between values parts separate entries of the source, which are not always exact repeats. Identical values can stand only once.

Results on 17 substances are retold here after patent publication US20190085055A1.

Test [1] addresses tissue factor extracellular domains (human) (UniProt P13726). In words: SPR, TF immobilised, purified Fab as analyte, 1:1 model. A general note: Surface plasmon resonance follows binding to a sensor surface in real time, without labels.
For test [2], the target named is D3H44 light chain F118W_V133S. Nature of the test: LCCA (SPR), competitor L1 WT.
For test [3], the target named is D3H44 light chain, wild type. In words: LCCA (SPR), competitor L2 F118W_V133S.
D3H44 light chain, wild type, sequence (light, as listed by the source): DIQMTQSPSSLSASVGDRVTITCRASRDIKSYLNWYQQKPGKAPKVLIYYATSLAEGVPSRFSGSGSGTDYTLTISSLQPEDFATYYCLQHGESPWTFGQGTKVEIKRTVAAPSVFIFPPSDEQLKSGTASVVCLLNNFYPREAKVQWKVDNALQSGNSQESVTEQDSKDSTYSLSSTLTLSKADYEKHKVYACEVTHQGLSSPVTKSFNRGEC
The target in test [4] is D3H44 light chain F118W_V133S. Nature of the test: LCCA (SPR), competitor L1 F116A.
The target of test [5] is D3H44 light chain F116A. Nature of the test: LCCA (SPR), competitor L2 F118W_V133S.
Test [6] has as its target D3H44 light chain, wild type. In words: LCCA (SPR), competitor L2 F116A.
Test [7] deals with D3H44 light chain F116A. Nature of the test: LCCA (SPR), competitor L1 WT.
In test [8] the target is D3H44 light chain F116S. Nature of the test: LCCA (SPR), competitor L2 F118W_V133S.
The target in test [9] is D3H44 light chain F118W_V133S. Nature of the test: LCCA (SPR), competitor L1 F116S.
In test [10] the target is D3H44 light chain F98L. In words: LCCA (SPR), competitor L2 F98W.
For test [11], the target named is D3H44 light chain F98W. Nature of the test: LCCA (SPR), competitor L1 F98L.

tissue factor extracellular domains (human), sequence (P13726 33-251): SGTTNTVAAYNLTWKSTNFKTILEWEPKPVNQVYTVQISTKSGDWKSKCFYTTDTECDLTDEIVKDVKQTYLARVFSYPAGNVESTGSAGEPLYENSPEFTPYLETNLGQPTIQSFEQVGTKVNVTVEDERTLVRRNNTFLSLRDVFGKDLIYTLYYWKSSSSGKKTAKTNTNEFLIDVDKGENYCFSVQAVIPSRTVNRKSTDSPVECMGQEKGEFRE

The substance “D3H44 Fab Design 11 H1-L1 (H1 S188L_V190Y, L1 V133S)” returned a Kd in test [1] of 0.043 nM. That is a picomolar value.
In turn, “D3H44 Fab Design 11 H2-L2 (H2 F174V_P175S_S188G, L2 S176L)” returned a Kd in test [1] of 0.04 nM.
Same read-out and setting: for “D3H44 Fab Design 13 H1-L1 (H1 L143A_D144G_Q179R, L1 Q124E_V133W_Q160E_T180E)” the value was 0.087 nM; for “D3H44 Fab Design 13 H2-L2 (H2 K145T_Q179D_S188F, L2 V133A_Q160K_T178R)”, 0.086 nM.
In test [1], “D3H44 Fab Design 15 H1-L1 (H1 D146G_Q179R, L1 Q124E_Q160E_T178D)” displayed an equilibrium dissociation constant (Kd) of 0.082 nM.
For “D3H44 Fab Design 15 H2-L2 (H2 K145T_Q179D_S188L, L2 Q160K_T178R)”, in test [1], the Kd worked out at 0.071 nM.
In turn, “D3H44 Fab Design 30 H1-L1 (H1 D148G_Q175K, L1 Q124E_Q160E_T180E)” had a Kd in test [1] of 0.024 nM.
In test [1], “D3H44 Fab Design 30 H2-L2 (H2 L145E_K147T, L2 Q160K_T178R)” displayed a Kd of 0.06 nM.
The same measure, in the same setting: for “D3H44 Fab Design 31 H1-L1 (H1 Q39D_A141G_V185A, L1 Q38R_L135W)” the value was 0.025 nM.
Take D3H44 heavy chain (Fab format) A139I: the H2 L2 of H2 L2:H2 L1 (screen) in [2] is 51.9. Besides, the H2 L1 of H2 L2:H2 L1 (screen) in test [3] was 28.9.
On to “D3H44 heavy chain (Fab format) A139I_V190S”, for which the H1 L2 of H1 L1:H1 L2 (screen) in test [4] amounted to 25.1; in [2] it was 28. The H1 L2 of H1 L1:H1 L2 (verification) is 0.759 in test [4] and 8.2 in [2]. The values for the H1 L1 of H1 L1:H1 L2 (screen) in [5] and in test [3] were 64.7 and 67.1, respectively. The H1 L1 of H1 L1:H1 L2 (verification) worked out at 59.8 in [5] and 77 in test [3].
As to D3H44 heavy chain (Fab format) A139V, in [4], the H2 L2 of H2 L2:H2 L1 (screen) turned out to be 63.9; the H2 L2 of H2 L2:H2 L1 (verification) was 24.5 and 56.1. Moreover, in test [5], the H2 L1 of H2 L2:H2 L1 (screen) was 35.7; the H2 L1 of H2 L2:H2 L1 (verification) was 56.1 and 24.5.
In the case of “D3H44 heavy chain (Fab format) A139V_V190S”, in test [4], the H1 L2 of H1 L1:H1 L2 (screen) came to 35.1 and the H1 L2 of H1 L1:H1 L2 (verification) is 10.1. In [2], the H1 L2 of H1 L1:H1 L2 (screen) was determined as 35.2 and the H1 L2 of H1 L1:H1 L2 (verification) is 8.66. In test [5], the H1 L1 of H1 L1:H1 L2 (screen) is 68.7 and the H1 L1 of H1 L1:H1 L2 (verification) amounted to 42.1. Besides, in test [3], the H1 L1 of H1 L1:H1 L2 (screen) was 58.8 and the H1 L1 of H1 L1:H1 L2 (verification) was 52.2.
For “D3H44 heavy chain (Fab format) A139W_V190A”, in test [6], the H2 L1 of H2 L2:H2 L1 (screen) was 17.8 and the H2 L1 of H2 L2:H2 L1 (verification) turned out to be 19.7. Also, in [7], the H2 L2 of H2 L2:H2 L1 (screen) is 74.5 and the H2 L2 of H2 L2:H2 L1 (verification) amounted to 51.4.
As to “D3H44 heavy chain (Fab format) A139W_V190S”, in [4], the H1 L2 of H1 L1:H1 L2 (screen) was determined as 33.4 and the H1 L2 of H1 L1:H1 L2 (verification) came to 0.722. In addition, in test [6], the H2 L1 of H2 L2:H2 L1 (screen) was determined as 21.1 and the H2 L1 of H2 L2:H2 L1 (verification) worked out at 22.3. In test [7], the H2 L2 of H2 L2:H2 L1 (screen) stood at 66.9 and the H2 L2 of H2 L2:H2 L1 (verification) was 43. In test [5], the H1 L1 of H1 L1:H1 L2 (screen) was 68.7 and the H1 L1 of H1 L1:H1 L2 (verification) came to 83.8. In test [8], this substance gave an H1 L1 of H1 L1:H1 L2 (screen) of 84.8 and an H1 L1 of H1 L1:H1 L2 (verification) of 55.4. In test [9], this substance showed an H1 L2 of H1 L1:H1 L2 (screen) of 15.7 and an H1 L2 of H1 L1:H1 L2 (verification) of 20.2.
Turning to “D3H44 heavy chain (Fab format) V37W_W103F”, in [10], the H1 L1 of H1 L1:H1 L2 (screen) was 64.2 and the H1 L1 of H1 L1:H1 L2 (verification) amounted to 38.2. In test [11], this substance gave an H1 L2 of H1 L1:H1 L2 (screen) of 14.8 and an H1 L2 of H1 L1:H1 L2 (verification) of 27.7.
For the substance D3H44 heavy chain (Fab format) V190G, the H1 L2 of H1 L1:H1 L2 (screen) in test [4] was 35.3; in test [9], 24.1. Besides, the H1 L1 of H1 L1:H1 L2 (screen) in [5] was 55.1; in test [8] it was 78.2. In [8], this substance yielded an H1 L1 of H1 L1:H1 L2 (verification) of 25.9. The substance also showed an H1 L2 of H1 L1:H1 L2 (verification) in [9] of 50.8.
